B1: Docking protein 1 (Mus musculus), P97465 (parent)
chain: MDGAVMEGPLFLQSQRFGTKRWRKTWAVLYPASPHGVARLEFFDHKGSSSRGGRGGSRRLDCKMIRLAECVSVVPVTVESPPEPGAVAFRLDTAQRSHLLAADAVSSTAWVQTLCRTAFPKGGWALAQTENQPKFSALEMLENSLYSPTWEGSQFWVTSQKTEASERCGLQGSYILRVEAEKLTLLTLGAQSQILEPLLFWPYTLLRRYGRDKVMFSFEAGRRCPSGPGTFTFQTSQGNDIFQAVEAAIQQQKAQGKVGQAQDILRTDSHDGETEGKTVPPPVPQDPLGSPPALYAEPLDSLRIPPGPSQDSVYSDPLGSTPAGAGEGVHSKKPLYWDLYGHVQQQLLKTKLTDSKEDPIYDEPEGLAPAPPRGLYDLPQEPRDAWWCQARLKEEGYELPYNPATDDYAVPPPRSPKPAPAPKPQGLILPESGTTRGSGSKGFSSDTALYSQVQKSGTSGAWDCGLSKVGNDRAGVKSEGST

Variants of: B1
Conditions: with nck1_mouse Nck1, Q99M51

Row | effect of a mutation on the interaction | Variant
1 | disrupting interaction | Y361F

Reference: IntAct's records for PubMed 15148308
